Assay [1] deals with T1, full-length Sudan GP (GPFL) (Sudan virus (SUDV), UniProt Q7T9D9 33-650).
T1 construct: also called Sudan GPFL; GP(S)FL
T1 sequence: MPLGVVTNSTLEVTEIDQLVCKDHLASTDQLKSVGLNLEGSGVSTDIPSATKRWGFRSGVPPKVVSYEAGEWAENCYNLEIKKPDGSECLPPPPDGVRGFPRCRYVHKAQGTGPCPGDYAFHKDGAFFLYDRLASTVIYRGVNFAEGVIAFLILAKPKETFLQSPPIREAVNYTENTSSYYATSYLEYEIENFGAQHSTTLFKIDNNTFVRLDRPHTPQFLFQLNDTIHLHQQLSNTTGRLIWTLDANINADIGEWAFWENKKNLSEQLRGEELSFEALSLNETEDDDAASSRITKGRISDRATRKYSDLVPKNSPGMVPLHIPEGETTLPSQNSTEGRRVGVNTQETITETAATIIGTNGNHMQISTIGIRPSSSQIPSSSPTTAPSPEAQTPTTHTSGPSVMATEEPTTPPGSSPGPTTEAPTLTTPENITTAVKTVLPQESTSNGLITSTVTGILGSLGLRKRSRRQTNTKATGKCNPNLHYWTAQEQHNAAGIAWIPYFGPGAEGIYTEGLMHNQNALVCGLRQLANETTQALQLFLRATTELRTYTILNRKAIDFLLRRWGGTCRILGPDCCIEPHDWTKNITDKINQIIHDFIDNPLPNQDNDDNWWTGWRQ
The assay can be described thus: ELISA on coated GP. (In general: An ELISA detects its analyte on a solid surface through an enzyme-linked reagent.)

The target of assay [2] is T2, SUDV GP on pseudotyped lentiviral vector (Sudan virus (SUDV), UniProt Q7T9D9 33-676).
T2 sequence: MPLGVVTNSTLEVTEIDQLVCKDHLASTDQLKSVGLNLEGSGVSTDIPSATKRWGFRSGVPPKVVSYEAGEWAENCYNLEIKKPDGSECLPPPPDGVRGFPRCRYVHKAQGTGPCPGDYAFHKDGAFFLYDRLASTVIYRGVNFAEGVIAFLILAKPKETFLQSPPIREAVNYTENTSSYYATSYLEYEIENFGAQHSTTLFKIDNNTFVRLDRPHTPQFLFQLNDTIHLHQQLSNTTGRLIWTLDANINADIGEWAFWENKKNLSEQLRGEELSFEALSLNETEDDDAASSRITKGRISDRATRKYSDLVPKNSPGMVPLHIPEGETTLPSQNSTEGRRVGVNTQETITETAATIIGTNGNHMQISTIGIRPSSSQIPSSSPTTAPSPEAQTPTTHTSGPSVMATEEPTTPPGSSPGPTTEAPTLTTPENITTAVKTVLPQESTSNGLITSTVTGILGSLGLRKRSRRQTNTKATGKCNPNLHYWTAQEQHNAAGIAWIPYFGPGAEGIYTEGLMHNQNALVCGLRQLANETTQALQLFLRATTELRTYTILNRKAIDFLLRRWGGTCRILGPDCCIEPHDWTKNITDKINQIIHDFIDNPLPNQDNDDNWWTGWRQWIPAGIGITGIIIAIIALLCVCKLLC
The assay can be described thus: cell-based or functional assay.

Assay [3] addresses T1, full-length Sudan GP (GPFL). In words: ELISA on coated GP. The source holds these as a separate data set.
The target in assay [4] is T2, SUDV GP on pseudotyped lentiviral vector. In words: cell-based or functional assay. The source holds these as a separate data set.

Read-outs that look alike come from different tables or passages of the source.

B1: antibody 578S (antibody, V domains shown)
VH: EVQLVESGGGVVQPGRSLRLSCAASGFTFSSYELHWVRQAPGKGLEWVAVISYDGSSKYYADSLKGRFTISRDNSKNTLSLQMNSLRAEDTAMYYCVRQSEAYCSDGRCDWRRALDIWGQGTMVTVSP
VL: DIQMTQSPSSLSASVGDRVTITCQASQDIKNYLNWYQQKPGKAPKLLIYDVSKLETGVPSRFSGSGSGTDFSFTISSLQPEDIATYYCQQYDNLPSYTFGQGTKLEIK
The EC50 is the concentration that produces a half-maximal response. Consider B1, for which, in assay [1], the EC50 was 0.18 µg/mL. For the same molecule, in assay [2], the “IC50, microneutralization of GP-pseudotyped lentiviral vector on HEK293 cells” value (from here on “IC50, microneutralization”) came out at 1.09 µg/mL.

B2: antibody 523S (antibody, V domains shown)
VH: QVQLVQSGAELKKPGASVKVSCKASGYTFSDHYVHWVRQAPGQGLEWMGRINPNSGGTNYAQRFLGRVTMTRDASISTAYLDLSSLRSDDTAVYYCARSSSSWSGHYYYYMDVWGKGTTVTVSS
VL: QSVLTQPPSVSAAPGQRVTISCSGSTSNIASNFVSWYQQLPGTAPKLLIYDNHKRPSGIPDRFSGSKSGTSATLGITGLQTGDEADYYCGTWDSSLSAGVFGGGTKVTVLG
In assay [3], B2 returned an EC50 of 0.371 µg/mL. For the same molecule, the “IC50, microneutralization” value in assay [4] came to 0.108 µg/mL.

B3: antibody 294S (antibody, V domains shown)
VH: QVQLQESGPGLVKPSQTLSLTCTVSGGSISSGGYHWSWIRQHPGKGLEWIGNIYYNGRTYYNPSLKSRVTISVDTSENEFSLKLSSVTAADTAVYYCARDRRRPRIGHDYGMDVWGQGTKVIVSS
VL: DIQMTQSPSSLSASVGDRVTISCRASQSISNFLNWYQQKPGQAPKLLIYTASNLQSGVPSRFSGSGSGTDFTLTISSLQPEDFATYYCQQIYNTGMYSFGQGTKLEIKR
Turning to B3, the midpoint of the response in assay [3], the EC50, lay at 0.0258 µg/mL. Moreover, the “IC50, microneutralization” value in assay [4] was found to be 0.0192 µg/mL.

B4: antibody 405S (antibody, V domains shown)
VH: EVQLVESGGGLIQPGGSLRLSCAASGFTVSSHYMSWVRQAPGKGLEWVSGIYSGGRTHYADSVKGRFTISRDNSKNTLYLQMNSLRADDTAVYSCARGTLLYLYGMDVWGQGTTVTVSS
VL: QSVLTQPPSVSAAPGQRVTISCTGSSSNIGAGYNVHWYQQLPGAAPKLLIYGNTNRPSGVPDRFSGSKSGTSASLAITGLQAEDEADYYCQSFDSSLSGVFGTGTKVTVL
Regarding B4, the midpoint of the response in assay [1], the EC50, lay at 0.06 µg/mL. Further, the “IC50, microneutralization” value in assay [2] worked out at 0.79 µg/mL.

B5: antibody 241S (antibody, V domains shown)
VH: QVQLVQSGSELKKPGASVKVSCKASGYTFTSYTVNWVRQAPGQGLEWMGWINTNTGNPTYAQGFTGRFVFSSDTSVSTAYLQISDLKAEDTAMYYCARHVAYDLWSGHTVTFDHWGQGTLVTVSS
VL: QSALTQPPSASGSPGQSVTISCTGTSSDVGAYNYVSWYQQHPGKAPKLIIYEVTKRPSGVPDRFSGSKSGNTASLTVSGLQAEDEADYYCSSKAGGKTYVFGTGTKVTVL
Take B5: it took 0.232 µg/mL to reach a half-maximal effect in assay [3] (EC50). Further, in assay [4], the “IC50, microneutralization” value came to 0.0275 µg/mL.

B6: antibody 503S (antibody, V domains shown)
VH: QVQLVQSGAEVKKPGASVRVSCKASGYTFTSYYMHWVRQAPGQGLEWMGQINPSGGTTRYERKFQGRITVTRDTSTSTVYLELSSLRSEDTASYFCACLRDKVTYYDLWSGVDSVWGQGTLVTVSS
VL: DIQMTQSPSSLSASVGDRVTITCRASQDISTWLAWYQQKPEKAPKSLIYAASTLETGVPSRFSGSGSGTDFTLTISSLQPEDFATYYCEQYNGFPRTFGQGTKLDIK
B6 yielded an EC50 in assay [3] of 0.64 µg/mL. Further, in assay [4], the “IC50, microneutralization” value was 0.102 µg/mL.

B7: antibody 382S (antibody, V domains shown)
VH: QVQLVQSGAEVKKPGSSVKVSCKASGGTFSNYGISWVRQAPGQGLEWMGRNIPIIGIANYAQKFQDRVTITADKSTSTVFMELRSLRYEDTAVYYCARDPLAARRGNWFDPWGQGTLVTVSS
VL: DIQMTQSPSTLSASVGDRVTITCRASQSVSSWLAWYQQKPGKAPKLLIYDASTLQSGVPSRFSGSGSGTEFTLTISSLQPDDFATYYCQQYNSYSYTFGQGTKLEIK
With B7, in assay [1], the EC50 turned out to be 0.35 µg/mL. Besides, the “IC50, microneutralization” value in assay [2] was determined as 0.71 µg/mL.

B8: antibody 365S (antibody, V domains shown)
VH: EVQLVESGGGLVQPGGSLRLSCAASGLTFSAYEMNWVRQAPGKGLEWVSHITTSGSAIYYADSVKGRFTISRDNAKNSLHLQMNRLRADDTAVYFCARDSTIVQCSGTSCHVSTYSYMDVWGKGTTVTVSS
VL: EIVLTQSPATLSLSPGERATLSCRASQSVTTYLAWYQHKPGQAPRLLIYDASKRATGIPARFSGSGSGTDFTLTISSLEPEDFAVYHCQQRSSWPPITFGQGTRLEIK
Molecule B8 registered an EC50 in assay [1] of 0.11 µg/mL. In assay [2], the “IC50, microneutralization” value stood at 0.79 µg/mL.

B9: antibody 541S (antibody, V domains shown)
VH: QVQLVQSGAEVKKPGASVKVSCKASGYTFTNYAITWVRQAPGQGLEWMGWISAFNGQINYAQKFQGRVAMTTDTSTSTAYMELRSLRSDDTAVYYCARAPPMWFSGAKFDYWGQGTLVTVSS
VL: QSVLTQPPSVSGTPGQRVTISCSGSSSNIGSNTVNWYQQLPGTAPKLLIYSNDQRPSGVPDRFSGSKSGTSASLAISGLRSEDEADYYCAAWDETLRRVFGGGTRLTVL
Consider B9, for which the EC50 in assay [3] was found to be 0.368 µg/mL. For the same molecule, the “IC50, microneutralization” value in assay [4] was 0.478 µg/mL.

B10: antibody 102S (antibody, V domains shown)
VH: EVQLVESGGGLVQPGGSLRLSCSASGFTFHSYDMNWARQAPGKGLEWVSEISSSGQSKNYADSVRGRFTISRDNAKNSLYLQINSLRSEDTAVYYCARVGFVAKFGSDFSITHGTYYLDYWGQGTLVTVSS
VL: QLVLTQSPATLSLSPGERATLSCRASQSVSNYLAWYQQKPGQAPRLLIYDASNRAPGVPARFSGSGSGTDFSLTISSLEPEDFAVYYCLQRSNWPPWTFGQGTKVEIK
Turning to B10, the EC50 in assay [1] amounted to 0.09 µg/mL. Moreover, the “IC50, microneutralization” value in assay [2] was found to be 0.88 µg/mL.

B11: antibody 573S (antibody, V domains shown)
VH: EVQLVESGGGLVKPGGSLRLSCAASGFTFSSYTMNWVRQAPGKGLEWVSCIRSSSSDKYYADSVKGRFTISRDNTKNSLYLQMNSLRADDTAVYYCARDLGGANNRYYFDYGMDVWGQGTTVTVSS
VL: EIVMTQSPATLSVSPGGRATLSCRASQSVYTNLAWYQQKPGQAPRLLIYDASTRATGIPARFSGSGSGTEFTLTISSLQCEDFAVYYCQHYNNWPLYTFGQGTKLEIK
Molecule B11 yielded an EC50 in assay [3] of 0.221 µg/mL. Besides, the “IC50, microneutralization” value in assay [4] amounted to 0.188 µg/mL.

B12: antibody 233S (antibody, V domains shown)
VH: EVQLVESGGGLGQPGGSLRLSCAASGFKFKIFGMNWVRQAPGKGLEWVSYISSRSSIIYYADSVKGRFTISRDDATNSLFLQMNSLRDEDTAMYYCVRDYNLIDFVWGSLFDYWGQGILVTVSS
VL: AIRMTQSPSSLSASTGDSVTITCRASQNIASYLAWYQQIPGKAPKLLIYVASTLQSGVPSRFSGSGSGTDFTLTISSLQSEDFATYYCQQYYRYPPTFGQGTKVEIK
Consider B12, for which the EC50 in assay [3] worked out at 0.133 µg/mL. Besides, the “IC50, microneutralization” value in assay [4] was found to be 0.167 µg/mL.

B13: antibody 354S (antibody, V domains shown)
VH: QVQLVQSGAEVKKPGASVKVSCKASGYSFASYYIHWVRQAPGQGLEWMGIINPSGGTTSYAQKFQGRVTMTRDTSTSTVYMELSSLGSEDTAVYYCARIVDRVTIYLNGVDNYWGQGTLVTVSS
VL: EIVMTQSPATLSVSPGERVTLSCRASQSVSSNLAWFQQTPGQAPRLLIYGASTRASGVPARFSGSGSGTEFTLTISSLQSEDFAVYYCLQYNNWPPGWKYGFGQGTKLEIK
For the molecule B13, a half-maximal response in assay [3] (EC50) required 0.0613 µg/mL. In addition, the “IC50, microneutralization” value in assay [4] amounted to 0.03 µg/mL.

These data come from patent US20260209316A1 (US Dept. of Health and Human Services, published 2026).
